# Data taken from publication PMC6795808, “N6-methyladenosine modification of circNSUN2 facilitates cytoplasmic export and stabilizes HMGA2 to promote colorectal liver metastasis”.
# Columns and labels:
# IGF2BP2 WT = IGF2BP2 WT (UniProt Q9Y6M1 1-599); test: EMSA; dose-dependent; confirmed by supershift; LightShift Chemiluminescent RNA EMSA kit binding buffer (composition not stated), 30 min, room temperature; 6% native PAGE, 0.5x TBE; supershift preincubation with antibody 20 min at 0 C; conditions: protein: recombinant; tags: FLAG; label: 3'-biotin
# Chain of IGF2BP2 WT (Q9Y6M1 whole entry): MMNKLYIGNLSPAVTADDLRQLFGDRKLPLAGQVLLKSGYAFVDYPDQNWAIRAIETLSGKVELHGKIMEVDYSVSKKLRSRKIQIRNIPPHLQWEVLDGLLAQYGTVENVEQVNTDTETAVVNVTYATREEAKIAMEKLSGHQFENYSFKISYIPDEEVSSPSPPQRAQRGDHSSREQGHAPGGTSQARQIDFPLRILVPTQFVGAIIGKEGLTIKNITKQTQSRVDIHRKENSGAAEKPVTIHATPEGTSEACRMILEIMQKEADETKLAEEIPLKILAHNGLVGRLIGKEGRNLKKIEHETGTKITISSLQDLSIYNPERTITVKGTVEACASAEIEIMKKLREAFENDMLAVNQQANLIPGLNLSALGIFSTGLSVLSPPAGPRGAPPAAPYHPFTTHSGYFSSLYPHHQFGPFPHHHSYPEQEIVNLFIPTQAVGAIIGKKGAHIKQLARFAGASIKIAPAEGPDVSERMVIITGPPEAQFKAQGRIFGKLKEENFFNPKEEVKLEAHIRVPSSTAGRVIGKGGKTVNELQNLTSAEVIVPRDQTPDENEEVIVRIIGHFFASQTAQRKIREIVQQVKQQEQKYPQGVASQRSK
# YTHDC1 WT = YTHDC1 WT (UniProt Q96MU7 1-727); test: EMSA; LightShift Chemiluminescent RNA EMSA kit binding buffer (composition not stated), 30 min, room temperature; 6% native PAGE, 0.5x TBE; supershift preincubation with antibody 20 min at 0 C; conditions: protein: recombinant; tags: FLAG; label: 3'-biotin
Binder,binding result (IGF2BP2 WT),binding result (YTHDC1 WT)
CCUCAUCAUAAGGUAUCCUG (ssRNA) [circNSUN2 wild type (IGF2BP2 probe)],binds,–
"AUAAGGUAUCCUGAAGAACU (ssRNA, m6A not marked in the printed sequence; whether A18 is methylated in the probe is unclear) [circNSUN2-m6A wild type]",–,binds
